Read-outs that look alike come from different tables or passages of the source.
Tests used:
DR5-Fc fusion protein [1] = target: DR5-Fc fusion protein (UniProt O14763); assay: ELISA, coated DR5-Fc, anti-human Fab-HRP
DR5-Fc fusion protein [2] = target: DR5-Fc fusion protein (UniProt O14763); assay: ELISA, coated DR5-Fc, anti-human Fab-HRP; remark: listed apart in the source

EC50 (DR5-Fc fusion protein [1]): 1.2 nM
EC50 (DR5-Fc fusion protein [2]): 1.4 nM
Substance: Drozitumab (antibody)

From patent US20210002376A1
